This experiment concerns the target human FcRn (human) (UniProt P55899). The experiment in a line: SPR (Biacore), pH 7.1; antibody captured on biot-IZ-hCD40L, soluble receptor as analyte. Background: In SPR one partner is held on a chip, and binding of the other changes the refractive index at the surface.

Our source for the Kd values is patent US20170051059A1.

pKd: −log10 of the molar value.

UniProt P55899, sequence (P55899 24-297 limits assumed, chain 1 of 2): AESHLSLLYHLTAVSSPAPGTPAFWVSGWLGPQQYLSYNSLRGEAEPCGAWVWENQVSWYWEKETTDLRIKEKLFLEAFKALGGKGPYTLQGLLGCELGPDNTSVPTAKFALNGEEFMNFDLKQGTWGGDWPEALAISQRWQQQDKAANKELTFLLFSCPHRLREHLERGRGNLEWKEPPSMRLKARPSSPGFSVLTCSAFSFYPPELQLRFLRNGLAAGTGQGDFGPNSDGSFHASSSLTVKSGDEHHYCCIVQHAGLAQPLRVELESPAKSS
UniProt P55899, sequence (chain, as listed by the source limits assumed, chain 2 of 2): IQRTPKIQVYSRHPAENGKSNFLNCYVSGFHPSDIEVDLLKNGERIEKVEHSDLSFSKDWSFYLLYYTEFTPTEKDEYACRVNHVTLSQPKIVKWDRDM

Usually pKd stands for −log10 of the Kd, conventionally taken in molar units. Low readings indicate a large Kd, high ones a small Kd. Consider 5c8-IgG1 (antibody), for which the pKd was < 5.30.
